Assays:
[1] = tested on: granulocytes; assay: Granulocyte activation (production of superoxide anions after stimulation with zymosan or PMA); format: cell-based
Experimental: The samples are those collected 3 hours after pleurisy.
Reagent control: PBS^+ (0.65 ml)+cytochrome C 5 mg/ml (0.15 ml).
Cell control: PBS^+ (0.65 ml)+cytochrome C 5 mg/ml (0.15 ml)+G 10 M/ml (0.2 ml).
Test: PBS^+ (0.45 ml)+cytochrome C 5 mg/ml (0.15 ml)+ZO or PMA (0.2 ml), with: NaCl control (column 1), SOD (column 2), Ceramide control (column 3), SOD+ceramides (column 4), Liposome control (column 5), Liposomal SOD (column 6).
Incubate for 15 minutes in a water bath at 37° C., with shaking,
stop the reaction for 10 minutes in an ice bath,
centrifuge for 5 minutes at 2000 rpm.

[2] = Erythrocyte SOD kinetics in anaesthetized rats after subcutaneous administration; design: species or system rat (male OFA, Sprague-Dawley); conditions: rat, in vivo, sc
Experimental: (§1) The kinetics of the plasmatic SOD are analyzed in anaesthetized rats after the oral or subcutaneous administration of free SOD, liposomal SOD or SOD in the form of a composition according to the invention.
(§2) The rats used are male OFA, Sprague-Dawley rats which are devoid of pathogenic germs, weigh 300 to 400 g and are not of the same blood type (IFFA CREDO breed).
Subcutaneous administration:
bovine erythrocyte SOD (Allerbiodose®) 0.5-1-2 mg/ml, in NaCl 0.9%,
bovine erythrocyte SOD 0.5-1-2 mg/ml+plant ceramides 1% (Inocosm), in NaCl 0.9%, according to the invention,
liposomal bovine erythrocyte SOD 0.5-1-2 mg/ml,
(§3) bovine erythrocyte SOD+gliadin, according to the invention.
The solutions or suspensions to be studied are administered at T0 by the injection of a volume of 0.3 ml (in 0.9% NaCl solution) behind the animal's head (n=4).
(§4) Each series of experiments is carried out on 4 animals per dose, the control groups always being treated in parallel for each experiment.
(§5) Once the gavage (or the subcutaneous injection) has been performed on the animals, the latter are anaesthetized by the slow intraperitoneal injection of thiopental (0.1 ml/100 g).
The samples are taken every hour for 6 hours (400 μl) via the one-way tap. The blood is collected in heparinated Eppendorf tubes (20 μl of heparin 1000 IU/ml). It is then centrifuged for 5 min at 4000 rpm. […]

[3] = tested on: rat paw oedema; assay: λ carrageenan-induced paw oedema after oral administration (gavage); format: in vivo; conditions: dose of 0.5 mg/kg
Experimental: To study the comparative kinetics of the anti-inflammatory action of a free form of SOD and a composition according to the invention, at different concentrations.
2 gavages are performed per day (morning and evening).
Injection of 0.1 ml of λ carrageenan 1% in the paw pad.
The measurements are made every hour for 6 hours.

[4] = Erythrocyte SOD kinetics in anaesthetized rats after oral administration (gavage); design: species or system rat (male OFA, Sprague-Dawley); conditions: rat, in vivo
Experimental: as §1, §2
bovine erythrocyte SOD (Allerbiodose®) 1-2-4 mg/ml, in NaCl 0.9%,
bovine erythrocyte SOD 1-2-4 mg/ml+plant ceramides 1% (Inocosm), in NaCl 0.9%, according to the invention,
liposomal bovine erythrocyte SOD 1-2-4 mg/ml,
as §3
The gavage is performed on the animals (n=4) at T0 with a volume of 1 ml of solution or suspension to be studied, in 0.9% NaCl solution. This gavage is performed using a cannula mounted on a 1 ml syringe and introduced into the buccal cavity of the rat.
as §4, §5
The samples are taken every hour for 6 hours (400 μl) via the one-way tap. The blood is collected in heparinated Eppendorf tubes (20 μl of heparin 1000 IU/ml). It is then centrifuged for 5 min at 4000 rpm. The plasma is then discarded and replaced with NaCl 0.9%. The tubes are centrifuged again for 5 min at 4000 rpm. The red blood cells are thus washed three times in succession.
The assays of the enzymatic activity of the erythrocyte SOD (of each form) are performed on each control or treated sample.
The erythrocytes are appropriately diluted in distilled water (+0.5 ml of 1% Triton solution) so that the inhibition obtained in the study tube is about 50% of that in the control tube.
The results obtained in IU SOD/ml are reported in IU SOD/mg haemoglobin. The haemoglobin is assayed by spectrophotometry at 405 nm.

SOD: bovine erythrocyte SOD (Allerbiodose®), in NaCl 0.9%
Significance (P) of the anti-inflammatory role ([1]; by oral administration): < 0.05
Effect of oral administration on granulocyte activation (in words) ([1]; oral administration, FIGS. 18 to 20): inhibitory effect
Cmax (comparison in words) [2]: slightly lower
Number of gavages from which the anti-inflammatory effect is observed [3]: ≥ 4 gavages
Cmax (comparison in words) [4]: lower
Concentrations/passage of SOD after oral administration (in words) [4]: reaches high concentrations when administered orally
Tmax [4]: around 5 hours

Source: patent US6045809A, “Pharmaceutical compositions containing a superoxide dismutase” (Institut de Recherches Franctales, priority 1995, dated 2000)
